Data taken from US20240043568A1 (KEYMED BIOSCIENCES, published 2024).
Numbering of substitutions follows the chain as printed.

B1: h49G8VHv6VKv2 (antibody, V domains shown)
VH: QVQLVQSGAEVKKPGSSVKVSCKASGYTFADYEIHWVRQAPGQGLEWMGAIHPGSGGTAYAQKFQGRVTLTADESSTTAYMELSSLRSEDTAVYYCTRYYSFAYWGQGTLVTVSS
VL: DVVMTQSPLSLPVTPGEPASISCRSSQSIVHSNYNTYLEWYLQKPGQSPQLLIYKVSNRFSGVPDRFSGSGSGTDFTLKISRVEAEDVGVYFCLQVTHVPLTFGQGTKLEIK
notes: Humanized 49G8; The name is read as h49G8VHv6 plus h49G8VKv2
B2: h49G8VHv6VKv4 (antibody, V domains shown)
VH: B1 VH
VL: B1 VL with Y34S
notes: Humanized 49G8
B3: h49G8VHv6VKv5 (antibody, V domains shown)
VH: B1 VH
VL: B1 VL with Y34T
notes: Humanized 49G8
B4: 5D6 (antibody, V domains shown)
VH: QVQLQQSGAELVRPGASVKLSCKALGYTFADYEIHWVKQTPVHGLEWIGAIHPGSGGTAYNQTFEGKATLTADKSSTTAYMELSSLTSEDSAVYYCTRYYSFAYWGQGTLVTVSA
VL: DVLMTQTPLSLPVSLGDQASISCRSSQSLVHSNGNTYLHWYLQKPGQSPKLLIYKVSNRFSGVPDRFSGSGSGTDFTLKISRVEAEDLGVYFCSQSTHVPLTFGAGTKLELK
notes: Chimeric IgG: murine variable regions on human IgG1 CH1-CH3 and an antibody light chain constant region
B5: 28G4 (antibody, V domains shown)
VH: B4 VH with Q1E, E65K
VL: B4 VL with L29I, H39Q, F92Y, S94F, S96G, T97S, L101Y, A105G, L111I
notes: Chimeric human IgG1
B6: 29A10 (antibody, V domains shown)
VH: B4 VH with Q1E, E65K
VL: B4 VL with L3V, L111I
notes: Chimeric human IgG1
B7: 30A4 (antibody, V domains shown)
VH: B4 VH with T28A, E65K
VL: B4 VL with L3V
notes: Chimeric human IgG1
B8: 30B7 (antibody, V domains shown)
VH: B4 VH with K19R, A30T, I34M, T63K, E65K, T77S
VL: B4 VL with L111I
notes: Chimeric human IgG1
B9: 34H1 (antibody, V domains shown)
VH: B4 VH
VL: B4 VL with L3V, T97I
notes: Chimeric human IgG1
B10: 38D2 (antibody, V domains shown)
VH: B4 VH
VL: DVVMTQTPLSLPVSLGDQASISCRSSQSLENSNGNTYLNWYLQKPGQSPQLLIYRVSNRFSGVLDRFSGSGSGTDFTLKISRVEAEDLGVYFCLQVTHVPYTFGGGTKLEIK
notes: Chimeric human IgG1
B11: 41F1 (antibody, V domains shown)
VH: B4 VH
VL: B4 VL with S96N
notes: Chimeric human IgG1
B12: 41H1 (antibody, V domains shown)
VH: B4 VH
VL: B4 VL with L3V, K79R, H98R
notes: Chimeric human IgG1
B13: 42A1 (antibody, V domains shown)
VH: B4 VH with N61S, E65K, Y100F
VL: B4 VL with L3V, M4V, V99A, L101Y, A105G, K108R, L111I
notes: Chimeric human IgG1
B14: 19F1 (antibody, V domains shown)
VH: B4 VH
VL: DVLMTQTPLSLPVSLGDQASISCRSSQSLVHSNGNTYLHWYLQKPGQSPKLLIYKVSNRFSGVPDRFSGSGSGTDFTLKISRVEAEDLGVYFCSQSTHIPTFGGGTKLELK
notes: Chimeric human IgG1
B15: 39G4 (antibody, V domains shown)
VH: B4 VH
VL: B14 VL with L3V, M4V, I99V, L110I
notes: Chimeric human IgG1
B16: 46C3 (antibody, V domains shown)
VH: QVQLQQSGPELVKPGASVKISCKASGYTFTDYYINWVKQKPGQGLEWIGWIYPGSGNTKYNEKFKGKATLTVDTSSSTAYMQLSSLTSEDTAVYFCARGRWGQGTLVTVSA
VL: B4 VL with L3V, G16R, L101R, A105G
notes: Chimeric human IgG1
B17: 47B6 (antibody, V domains shown)
VH: QVQLQQSGAELMKPGASVKISCKATGYTFSSYWIEWVKQRPGHGLEWIGEILPGSGSTNYNEKFKGKATFTADTSSNTAYMQLSSLTSEDSAVYYCARGYWGQGTLVTVSA
VL: B4 VL with V2I, L3V, T7A, L101R, A105G, L111I
notes: Chimeric human IgG1
B18: aCD3-hVH8/VL5 (antibody, V domains shown)
VH: EVQLVESGGGLVQPGGSLRLSCAASGFTFNTYAMNWVRKAPGKGLEWVGRIRSKYNNYATYYADSVKDRFTISRDDSKNSLYLQMNSLKTEDTAVYYCARHGNFGNSYVSWFAYWGQGTLVTVSS
VL: QAVVTQEPSLTVSPGGTVTLTCRSSTGAVTTSNYANWVQEKPGQAPRGLIGGTNKRAPWTPARFSGSLLGGKAALTITGAQAEDEAEYYCVLWYSNLWVFGGGTKLTVL
notes: Human IgG4, lambda
B19: aCD3-hVH9/VL3 (antibody, V domains shown)
VH: B18 VH with A99V
VL: B18 VL with Q1E, R23E, T26D, R56E, I77L, T78S, A82P, V91A
notes: Human IgG4, lambda

Target: recombinant cynomolgus monkey GPC3 full-length protein (cynomolgus monkey, UniProt A0A2K5VK50 24-558)
Assay: ELISA on coated recombinant cynomolgus monkey GPC3 protein, OD450 [panel Recombinant cynomolgus monkey GPC3 protein]

Binder	EC50 (read off the curve) [nM]
B1	~0.03
B2	~0.03
B3	~0.03

Target: T1, recombinant human GPC3 protein (human, UniProt P51654 25-563)
T1 construct: also called human GPC3 full-length protein; recombinant GPC3 protein
Assay: ELISA on coated recombinant human GPC3 protein, OD450 [panel Recombinant human GPC3 protein]

Binder	EC50 (read off the curve) [nM]
B1	~0.03
B2	~0.03
B3	~0.03

Target: T2, human GPC3 on cells (human, UniProt P51654 25-563)
T2 construct: whole, on cells; One molecule is used for both CHO-hGPC3 transfectants and GPC3+ HepG2 cells; The assay field names the cell; also called CHO-hGPC3 (clone 2B10); CHO-human GPC3
Assay: flow cytometry on human GPC3-CHO stably-transfected cells, MFI

Binder	EC50 (read off the curve) [nM]
B1	~2
B2	~2
B3	~2

Target: T2, human GPC3 on cells
Assay: flow cytometry, CHO-human GPC3 cells
Protocol: The binding of the antibodies to human GPC3 stably-transfected cells was detected by FACS. CHO-human GPC3 stably-transfected cells prepared in Example 1 in the logarithmic growth phase were adjusted to 5×10⁵ cells/ml with 4% calf serum (Hyclone, SH30626.06). 100 μl/well of cell suspension was added to a 96-well U-plate, and centrifuged at 300 g for 5 min. The supernatant was discarded. 100 μL of gradient diluted antibodies (initial concentration 200 nM, 3-fold dilution, 12 gradients) was added to each well and incubated at 4° C. for 45 min. The secondary antibody Alexa Fluro647 labeled goat anti-human IgG Fc (1:300 dilution) was added at 50 μL/well, incubated on ice for 45 minutes, and detected by flow cytometry.

Binder	EC50 [nM]
B4	3.73
B5	2.87
B6	3.39
B7	3.68
B8	2.78
B9	2.1
B10	3.35
B11	0.91
B12	1.07
B13	6.69
B14	3.59
B15	2.79
B16	0.46
B17	0.38

Target: T1, recombinant human GPC3 protein
Assay: BLI (Octet), antibody on Protein A probe
Protocol: (§1) Using BLI technology (Octet), the antibody to be tested was captured on the Protein A probe. The binding capacity with human GPC3 protein (10 μg/ml as the initial concentration, 2-fold gradient, a total of 5 concentration points) was detected. The affinity constant KD was obtained according to the association and dissociation rates. The 49G8 humanized antibody binds to the recombinant GPC3 protein with high affinity. The affinity data is seen in Table 6.

Binder	Kd [nM]	koff [s⁻¹]	kon [M⁻¹ s⁻¹]
B1	2	0.000187	93600
B2	2.28	0.000205	89900
B3	2.15	0.000193	90000

Target: T3, human CD3εγ-Fc heterodimer (human)
T3 construct: also called human CD3 εγ protein; recombinant CD3 εγ protein
T3 chain 1: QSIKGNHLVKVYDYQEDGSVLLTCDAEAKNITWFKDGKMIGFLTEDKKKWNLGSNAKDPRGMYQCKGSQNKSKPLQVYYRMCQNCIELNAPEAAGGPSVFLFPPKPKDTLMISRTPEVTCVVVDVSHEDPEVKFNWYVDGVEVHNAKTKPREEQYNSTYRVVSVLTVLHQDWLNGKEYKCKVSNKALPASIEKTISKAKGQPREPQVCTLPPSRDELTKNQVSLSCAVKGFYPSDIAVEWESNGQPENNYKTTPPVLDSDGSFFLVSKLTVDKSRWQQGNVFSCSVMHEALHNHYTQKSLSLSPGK
T3 chain 2: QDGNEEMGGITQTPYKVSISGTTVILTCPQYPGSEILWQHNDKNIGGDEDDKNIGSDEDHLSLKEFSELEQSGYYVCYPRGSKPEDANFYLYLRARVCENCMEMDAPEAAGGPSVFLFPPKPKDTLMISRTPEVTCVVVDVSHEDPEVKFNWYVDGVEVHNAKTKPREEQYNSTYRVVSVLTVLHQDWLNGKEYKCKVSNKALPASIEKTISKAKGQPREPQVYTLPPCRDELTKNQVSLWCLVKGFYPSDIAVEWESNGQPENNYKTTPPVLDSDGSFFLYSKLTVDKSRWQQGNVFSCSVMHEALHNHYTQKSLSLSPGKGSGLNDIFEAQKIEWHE
Assay: ELISA, coated human CD3εγ protein
Protocol: Human CD3 εγ protein was coated overnight at 4° C. After blocking with 2% skim milk, different dilutions of CD3 antibodies was added to each well and incubated for 1 hour. The secondary antibody HPR-labeled goat anti-human IgG Fc was added. After being developed by the TMB solution, the reaction was stopped with the concentrated sulfuric acid, and the absorbance was read at 450 nm (the results are shown in FIG. 12 and Table 8).

Binder	EC50 [nM]
B18	0.74
B19	0.7

Target: T1, recombinant human GPC3 protein
Assay: BLI (Octet), antibody on Protein A probe
Remark: another data set of the same source
Protocol: as §1, with “rates.” for “rates. The 49G8 humanized antibody binds to the recombinant GPC3 protein with high affinity. The affinity data is seen in Table 6.”

Binder	Kd [nM]	koff [s⁻¹]	kon [M⁻¹ s⁻¹]
B4	27.7	0.00292	105000
B5	11.3	0.00112	98900
B6	19.8	0.00281	142000
B7	19.9	0.00258	130000
B8	10.9	0.000783	71700
B9	12.9	0.00221	171000
B10	11.3	0.000832	73400
B11	18.5	0.00181	97900
B12	25	0.00264	106000
B13	40.5	0.00243	60000
B14	18.3	0.00213	116000
B15	26.2	0.00208	79500
B16	24.3	0.00154	63600
B17	48.2	0.00149	30800
